Assays:
PC12 cells [1] = test: Effect of pathway proteins and inhibitors on Karet-induced cell death in PC12 cells; assay type: cell-based, rat; details: co-electroporated with Karet into PC12, 12 hours
PC12 cells [2] = test: Viability / death of PC12 cells after transfection with Karet constructs (Live/dead kit, FACS, cell counting, Hoechst); assay type: cell-based, rat; details: PC12-necdin stable cells electroporated with Karet
Protocol: FIG. 5a is a bar-graph of FACS data depicting 50 percent death of PC12 cells overexpressing Karet. Shown is a FACS analysis of PC12 viability 15 hours after transfection with Ha-Karet or control vector using Live/dead kit (Molecular probes), T-test=0.003.
FIG. 5b is a series of fluorescence photomicrographs depicting death of PC12 cells caused by Karet overexpression. Shown is a live/dead kit analysis of PC12 cells overexpressing Ha-Karet (left panels) versus control vector-transfected cells (right panels). Live cell are stained in green, dead cells are stained in red. Upper panels each show red fluorescence only (left picture) and green fluorescence only (right picture) pairs, and lower panels each show combined red and green fluorescence (left picture) and light microscopy images (right picture) pairs. […]
FIG. 5e is a histogram depicting that Karet expression induces cell death of TrkA expressing cells, which is increased by NGF treatment and is decreased by necdin. […] Cells were counted and result presented as percent of control.
PC12 cells were transfected with Ha Karet, PTB, non PTB and their combinations. Cells were analyzed by FACS 18 hours after transfection using the dead/live kit. […]
The lower panel is a histogram depicting that Karet-mediated cell death correlates well with expression levels of the Karet protein. […] Cells were counted and the results were determined as percent of control. […]

[3] = target: 27 amino acid residue juxtamembrane region of TrkA (Homo sapiens, UniProt P04629); test: In-vitro affinity co-precipitation with biotinylated TrkA juxtamembrane peptide; assay type: binding; details: streptavidin beads, recombinant protein, versus two control peptides
Text: FIG. 8a is a co-immunoprecipitation analysis depicting interaction of Karet PTB domain with a juxtamembrane region of TrkA. Biotinylated synthetic peptide corresponding to the TrkA sequence in the juxtamembrane and control peptide were immobilized on streptavidin beads and then used to precipitate recombinant Karet protein. Precipitates were washed, eluted and bound Karet was visualized by Western blot with anti-His antibody.
FIG. 8b is an in-vitro affinity co-precipitation Western blot depicting that the isolated N-terminal PTB domain of Karet specifically interacts with a […] residue juxtamembrane region of TrkA having the sequence Biotinylated synthetic peptides corresponding to a 27 amino acid residue juxtamembrane region of TrkA having the sequence […] (SEQ ID NO: 10), and two control peptides were immobilized on streptavidin beads, and then used to precipitate recombinant PTB domain-containing Karet(1-228) truncation mutant. Precipitates were washed, eluted and bound Karet(1-228) was visualized by Western blot with Karet antibody.

TrkA = test: Co-immunoprecipitation of HA-Karet constructs with TrkA; assay type: binding; details: co-transfected Hek or NNR5 cells, anti-HA IP
Protocol: FIG. 3c is a co-immunoprecipitation assay depicting co-immunoprecipitation of HA-Karet with TrkA in COS cells. Karet tagged with the HA epitope was immunoprecipitated with anti-HA antibody and the blot was incubated with anti-TrkA (RTA). In control experiments the HA-Karet was substituted with vector.
FIG. 3d is a co-immunoprecipitation assay depicting interaction of Karet and TrkA in NNR5 cells transfected with TrkA.
FIG. 3e is a co-immunoprecipitation assay depicting co-immunoprecipitation of HA-Karet with TricA in co-transfected NNR5 cells immunoprecipitated with anti-HA (Roche) and Western blot with the anti-TrkA antibody C14 (Santa Cruz).
FIGS. 4a-c are co-immunoprecipitation assay results depicting the influence of NGF treatment on TrkA-Karet interaction. FIG. 4a depicts that TrkA-Karet interaction occurred prior to NGF treatment and was enhanced after ligand stimulation for 10 minutes (10 m) or 2 hours (2 h). HA-Karet was electroporated into cell line PC12, and the cells were treated with 50 ng/ml NGF for the indicated time periods in order to activate p75 and TrkA. Karet tagged with the HA epitope was immunoprecipitated with anti-HA antibody, the precipitated proteins were separated electrophoretically, and gel blots were incubated with anti-TrkA antibody (RTA). […]

27 amino acid residue juxtamembrane region of TrkA, sequence (P04629 464-490 limits assumed): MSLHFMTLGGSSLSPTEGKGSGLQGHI

B1: p35: a baculovirus caspase-8 and caspase-10 inhibitor (protein, UniProt P08160 1-299, looked up)
Early 35 kDa protein: MCVIFPVEIDVSQTIIRDCQVDKQTRELVYINKIMNTQLTKPVLMMFNISGPIRSVTRKNNNLRDRIKSKVDEQFDQLERDYSDQMDGFHDSIKYFKDEHYSVSCQNGSVLKSKFAKILKSHDYTDKKSIEAYEKYCLPKLVDERNDYYVAVCVLKPGFENGSNQVLSFEYNPIGNKVIVPFAHEINDTGLYEYDVVAYVDSVQFDGEQFEEFVQSLILPSSFKNSEKVLYYNEASKNKSMIYKALEFTTESSWGKSEKYNWKIFCNGFIYDKKSKVLYVKLHNVTSALNKNVILNTIK
PC12 cells [1]
  effect on cell death induction by Karet: did not affect cell death induction

B2: JIP1: a Jnk scaffold and inhibitor (protein, UniProt Q9UQF2 1-711, looked up)
C-Jun-amino-terminal …: MAERESGGLGGGAASPPAASPFLGLHIASPPNFRLTHDISLEEFEDEDLSEITDECGISLQCKDTLSLRPPRAGLLSAGGGGAGSRLQAEMLQMDLIDATGDTPGAEDDEEDDDEERAARRPGAGPPKAESGQEPASRGQGQSQGQSQGPGSGDTYRPKRPTTLNLFPQVPRSQDTLNNNSLGKKHSWQDRVSRSSSPLKTGEQTPPHEHICLSDELPPQSGPAPTTDRGTSTDSPCRRSTATQMAPPGGPPAAPPGGRGHSHRDRIHYQADVRLEATEEIYLTPVQRPPDAAEPTSAFLPPTESRMSVSSDPDPAAYPSTAGRPHPSISEEEEGFDCLSSPERAEPPGGGWRGSLGEPPPPPRASLSSDTSALSYDSVKYTLVVDEHAQLELVSLRPCFGDYSDESDSATVYDNCASVSSPYESAIGEEYEEAPRPQPPACLSEDSTPDEPDVHFSKKFLNVFMSGRSRSSSAESFGLFSCIINGEEQEQTHRAIFRFVPRHEDELELEVDDPLLVELQAEDYWYEAYNMRTGARGVFPAYYAIEVTKEPEHMAALAKNSDWVDQFRVKFLGSVQVPYHKGNDVLCAAMQKIATTRRLTVHFNPPSSCVLEISVRGVKIGVKADDSQEAKGNKCSHFFQLKNISFCGYHPKNNKYFGFITKHPADHRFACHVFVSEDSTKALAESVGRAFQQFYKQFVEYTCPTEDIYLE
PC12 cells [1]
  effect on cell death induction by Karet: did not affect cell death induction

B3: necdin: MAGE protein, interactor of the intracellular domain of p75 (protein)
chain: MSEQSKDLSDPNFAAEVPDCEMQDSDAVPVGIPPPASLAANLAGPPCAPEGPMAAQQASPPPEERIEDVDPKILQQAAEEGRAHQPQSPARPIPAPPAPAQLVQKAHELMWYVLVKDQKRMVLWFPDMVKEVMGSYKKWCRSILRRTSVILARVFGLHLRLTNLHTMEFALVKALSPEELDRVALNNRMPMTGLLLMILSLIYVKGRGAREGAVWNVLRILGLRPWKKHSTFGDVRKIITEEFVQQNYLKYQRVPHIEPPEYEFFWGSRANREITKMQIMEFLARVFKKDPQAWPSRYREALEQARALREANLAAQAPRSSVSED
PC12 cells [2]
  effect on the apoptotic effects of Karet: attenuated somewhat the apoptotic effects of Karet

B4: Karet(1-228): N-terminal, PTB-domain-containing truncation mutant of mouse Karet, amino acid residues 1-228 (SEQ ID NO: 7) (protein, listed as Mus musculus)
chain: MEEEGKKGKKPGIVSPFKRVFLKGEKSRDKKAHEKVTERRPLHTVVLALPERVEPDRLLSDYIEKEVKYLGQLTSIPGYLNPSSRTEILHFIDKAKRSHQLPGHLTQEHDAVLSLSAYNVKLAWRDGEDIILRVPIHDIAAVSYVRDDAAHLVVLKTAQDPGISPSQSLCAESSRGLSAGSLSESAVGPVEACCLVIMATESKVAAEELCSLLSQVFQIVYTESTIDF
modifications: HA tag; N-terminal PTB-domain-containing, truncation mutant of the mouse Karet
[3]
  precipitation by immobilized TrkA peptide (SEQ ID NO: 10): precipitated by the TrkA peptide
TrkA
  co-immunoprecipitation / interaction with TrkA: interacts with TrkA
TrkA; listed as PTB domain alone
  co-immunoprecipitation / interaction with TrkA: co-immunoprecipitated

Source: patent US20090036380A1, “Composition And Method For Brain Tumor Therapy” (Yeda Research and Development Co., Ltd., priority 2006, published 2009)
